Measured values: patent publication US20130095480A1 (BOARD OF TRUSTEES OF THE UNIVERSITY OF ARKANSAS, published 2013)

Biological target: T1, Chondroitin Sulfate Proteoglycan 4 (CSPG4) (human, UniProt Q6UVK1 30-2322, carries chondroitin sulfate (CS) glycosaminoglycan chains)
T1 construct: whole, on cells; also called High Molecular Weight Melanoma Associated Antigen; Melanoma Chondroitin Sulfate Proteoglycan
Assay: flow cytometry, recombinant P-selectin/Fc on M14-CSPG4 versus mock-transfected M14 cells
Protocol: Briefly, cells were incubated with mAb or P-selectin/Fc, washed and stained with FITC-conjugated anti-mouse IgM or anti-human IgG prior to binding detection by flow cytometry. R-phycoerythrin-conjugated polyclonal goat anti-mouse F(ab′)₂ was used as secondary for detection of anti-CSPG4 binding.

T1 sequence (Q6UVK1 30-2322): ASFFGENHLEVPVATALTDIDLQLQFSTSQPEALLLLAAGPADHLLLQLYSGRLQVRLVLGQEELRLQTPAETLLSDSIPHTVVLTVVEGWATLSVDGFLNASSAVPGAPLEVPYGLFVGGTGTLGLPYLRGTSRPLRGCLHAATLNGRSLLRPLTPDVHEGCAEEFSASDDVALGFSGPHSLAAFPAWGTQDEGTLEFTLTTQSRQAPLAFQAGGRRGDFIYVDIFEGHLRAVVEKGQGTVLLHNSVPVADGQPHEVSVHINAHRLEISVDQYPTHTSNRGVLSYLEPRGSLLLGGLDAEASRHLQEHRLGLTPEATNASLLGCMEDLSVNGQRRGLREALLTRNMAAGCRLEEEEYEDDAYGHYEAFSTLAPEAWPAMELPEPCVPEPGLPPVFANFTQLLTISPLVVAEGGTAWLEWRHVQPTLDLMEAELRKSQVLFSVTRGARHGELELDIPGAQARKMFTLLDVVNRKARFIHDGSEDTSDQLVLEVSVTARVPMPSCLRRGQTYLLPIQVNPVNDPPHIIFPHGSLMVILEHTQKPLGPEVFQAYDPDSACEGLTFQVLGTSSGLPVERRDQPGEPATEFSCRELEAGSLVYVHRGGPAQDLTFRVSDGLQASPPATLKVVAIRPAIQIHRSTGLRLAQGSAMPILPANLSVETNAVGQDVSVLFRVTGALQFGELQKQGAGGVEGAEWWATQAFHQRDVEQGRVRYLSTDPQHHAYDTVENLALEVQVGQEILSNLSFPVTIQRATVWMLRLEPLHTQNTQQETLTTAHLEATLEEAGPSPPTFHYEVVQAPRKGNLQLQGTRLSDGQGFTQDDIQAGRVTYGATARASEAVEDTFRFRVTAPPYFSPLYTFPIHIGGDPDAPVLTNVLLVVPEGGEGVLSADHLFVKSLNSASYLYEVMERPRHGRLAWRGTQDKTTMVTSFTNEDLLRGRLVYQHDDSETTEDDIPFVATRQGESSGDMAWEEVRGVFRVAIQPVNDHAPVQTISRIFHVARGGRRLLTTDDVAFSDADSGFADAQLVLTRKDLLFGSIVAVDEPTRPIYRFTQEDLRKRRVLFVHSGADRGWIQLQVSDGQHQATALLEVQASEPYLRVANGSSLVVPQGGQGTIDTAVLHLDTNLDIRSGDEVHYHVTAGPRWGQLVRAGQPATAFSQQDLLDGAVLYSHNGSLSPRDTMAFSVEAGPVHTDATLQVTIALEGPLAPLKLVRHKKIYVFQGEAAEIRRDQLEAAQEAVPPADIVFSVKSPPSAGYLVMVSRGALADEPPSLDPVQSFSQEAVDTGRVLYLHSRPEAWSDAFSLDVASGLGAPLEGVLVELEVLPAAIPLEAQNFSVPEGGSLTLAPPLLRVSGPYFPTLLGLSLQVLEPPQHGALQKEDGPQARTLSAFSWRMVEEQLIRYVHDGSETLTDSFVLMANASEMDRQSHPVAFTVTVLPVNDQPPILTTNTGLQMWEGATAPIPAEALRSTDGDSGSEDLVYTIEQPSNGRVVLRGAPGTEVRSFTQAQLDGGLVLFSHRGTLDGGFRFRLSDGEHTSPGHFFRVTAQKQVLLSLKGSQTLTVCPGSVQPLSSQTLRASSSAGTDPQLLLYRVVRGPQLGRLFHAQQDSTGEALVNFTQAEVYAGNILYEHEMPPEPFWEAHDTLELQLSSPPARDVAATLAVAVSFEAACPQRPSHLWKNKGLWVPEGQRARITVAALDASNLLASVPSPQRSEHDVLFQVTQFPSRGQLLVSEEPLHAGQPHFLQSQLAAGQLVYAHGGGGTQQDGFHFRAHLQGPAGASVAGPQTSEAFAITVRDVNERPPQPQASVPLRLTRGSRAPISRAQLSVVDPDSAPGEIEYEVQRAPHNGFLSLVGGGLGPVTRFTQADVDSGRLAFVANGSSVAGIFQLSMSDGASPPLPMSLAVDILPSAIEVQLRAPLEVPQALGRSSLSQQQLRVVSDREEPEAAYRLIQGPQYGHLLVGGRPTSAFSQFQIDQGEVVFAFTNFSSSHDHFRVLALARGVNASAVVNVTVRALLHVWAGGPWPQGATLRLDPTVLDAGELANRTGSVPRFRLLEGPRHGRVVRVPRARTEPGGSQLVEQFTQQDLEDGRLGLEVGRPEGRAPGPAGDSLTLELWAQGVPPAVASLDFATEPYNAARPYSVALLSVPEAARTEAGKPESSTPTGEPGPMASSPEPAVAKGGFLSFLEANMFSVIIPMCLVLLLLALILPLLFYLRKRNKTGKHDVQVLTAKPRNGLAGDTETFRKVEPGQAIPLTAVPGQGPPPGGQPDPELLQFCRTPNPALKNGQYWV

B1: recombinant human P-selectin/Fc (human IgG) (Fc fusion, UniProt P16109 42-771, looked up)
chain: WTYHYSTKAYSWNISRKYCQNRYTDLVAIQNKNEIDYLNKVLPYYSSYYWIGIRKNNKTWTWVGTKKALTNEAENWADNEPNNKRNNEDCVEIYIKSPSAPGKWNDEHCLKKKHALCYTASCQDMSCSKQGECLETIGNYTCSCYPGFYGPECEYVRECGELELPQHVLMNCSHPLGNFSFNSQCSFHCTDGYQVNGPSKLECLASGIWTNKPPQCLAAQCPPLKIPERGNMTCLHSAKAFQHQSSCSFSCEEGFALVGPEVVQCTASGVWTAPAPVCKAVQCQHLEAPSEGTMDCVHPLTAFAYGSSCKFECQPGYRVRGLDMLRCIDSGHWSAPLPTCEAISCEPLESPVHGSMDCSPSLRAFQYDTNCSFRCAEGFMLRGADIVRCDNLGQWTAPAPVCQALQCQDLPVPNEARVNCSHPFGAFRYQSVCSFTCNEGLLLVGASVLQCLATGNWNSVPPECQAIPCTPLLSPQNGTMTCVQPLGSSSYKSTCQFICDEGYSLSGPERLDCTRSGRWTDSPPMCEAIKCPELFAPEQGSLDCSDTRGEFNVGSTCHFSCDNGFKLEGPNNVECTTSGRWSATPPTCKGIASLPTPGVQCPALTTPGQGTMYCRHHPGTFGFNTTCYFGCNAGFTLIGDSTLSCRPSGQWTAVTPACRAVKCSELHVNKPIAMNCSNLWGNFSYGSICSFHCLEGQLLNGSAQTACQENGHWSTTVPTCQAGPLTIQEA
notes: Bought reagent (R&D Systems); also called recombinant P-selectin; not shown: Fc of human IgG
**Q.** Does B1 bind?
**A.** binds
